Measured values published in publication PMC9352680, “A comprehensive thermodynamic model for RNA binding by the Saccharomyces cerevisiae Pumilio protein PUF4”.

T1: PUF4 RNA-binding domain (Saccharomyces cerevisiae, UniProt P25339 537-888)
T1 sequence: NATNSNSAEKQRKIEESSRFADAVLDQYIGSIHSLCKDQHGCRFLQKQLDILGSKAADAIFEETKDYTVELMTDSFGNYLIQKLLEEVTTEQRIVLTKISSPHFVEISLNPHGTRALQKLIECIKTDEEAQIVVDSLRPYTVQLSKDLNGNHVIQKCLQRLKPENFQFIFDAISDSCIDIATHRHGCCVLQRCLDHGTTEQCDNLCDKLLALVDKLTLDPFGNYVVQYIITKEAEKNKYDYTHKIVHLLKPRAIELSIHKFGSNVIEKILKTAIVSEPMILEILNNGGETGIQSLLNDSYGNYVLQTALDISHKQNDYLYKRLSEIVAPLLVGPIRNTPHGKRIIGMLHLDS


What follows are binders tested against T1, PUF4 RNA-binding domain (assay: Mg; RNA-MaP; 20 mM Na-HEPES pH 7.4, 30 mM KOAc, 0.75 mM MgCl2, 0.1% Tween-20, 5% glycerol, 0.1 mg/mL BSA, 2 mM DTT; 25 C; 0.0125-409.6 nM protein). Details: tags: N-His6-TEV cleaved; C-SNAP kept, Cy3B-labelled; label: tethered on chip by stalled RNA polymerase.

UCUCUUCAACACUUAUUAUCUCUCUU (ssRNA) [Id_ii_S1_P5E.4_K5.3_C5.2_[T-1A]_H5.3_A5.1_F5.1_T5.2_[A12C]] and UCUCUUCAACACUUAUUAAAUCUCUU (ssRNA) [Id_ii_S1_P5E.4_K5.3_C5.2_[T-1A]_H5.3_A5.1_F5.1_T5.2_[T11A]] cannot be ordered by Kd: > 2300 nM for the first, > 2300 nM for the second.

UCUCUUCUACACUUAUUAUAUCUCUU (ssRNA) [Id_ii_S1_P5E.4_K5.3_C5.2_H5.3_A5.1_F5.1_T5.2] and UCUCUUCAACACUUAUUACAUCUCUU (ssRNA) [Id_ii_S1_P5E.4_K5.3_C5.2_[T-1A]_H5.3_A5.1_F5.1_T5.2_[T11C]] cannot be ordered by Kd: > 2300 nM for the first, > 2300 nM for the second.

Going from UCUCUUAAACACUUAUUAAUUCUCUU (ssRNA) [Id_ii_S1_P5E.4_K5.3_C5.2_[C-2A]_[T-1A]_H5.3_A5.1_F5.1_T5.2_[T11A]_[A12T]] to UCUCUUAUACACUUAUUAGCUCUCUU (ssRNA) [Id_ii_S1_P5E.4_K5.3_C5.2_[C-2A]_H5.3_A5.1_F5.1_T5.2_[T11G]_[A12C]], the Kd falls from > 2300 nM to 647 nM.

UCUCUUCUACACUUAUUACCUCUCUU (ssRNA) [Id_ii_S1_P5E.4_K5.3_C5.2_H5.3_A5.1_F5.1_T5.2_[T11C]_[A12C]] and UCUCUUCAACACUUAUUAAUUCUCUU (ssRNA) [Id_ii_S1_P5E.4_K5.3_C5.2_[T-1A]_H5.3_A5.1_F5.1_T5.2_[T11A]_[A12T]] cannot be ordered by Kd: > 2300 nM for the first, > 2300 nM for the second.

UCUCUUCCACACUUAUUACGUCUCUU (ssRNA) [Id_ii_S1_P5E.4_K5.3_C5.2_[T-1C]_H5.3_A5.1_F5.1_T5.2_[T11C]_[A12G]] and UCUCUUCCACACUUAUUAAUUCUCUU (ssRNA) [Id_ii_S1_P5E.4_K5.3_C5.2_[T-1C]_H5.3_A5.1_F5.1_T5.2_[T11A]_[A12T]] cannot be ordered by Kd: > 2300 nM for the first, > 2300 nM for the second.

Going from UCUCUUAUACACUUAUUACUUCUCUU (ssRNA) [Id_ii_S1_P5E.4_K5.3_C5.2_[C-2A]_H5.3_A5.1_F5.1_T5.2_[T11C]_[A12T]] to UCUCUUCCACACUUAUUACCUCUCUU (ssRNA) [Id_ii_S1_P5E.4_K5.3_C5.2_[T-1C]_H5.3_A5.1_F5.1_T5.2_[T11C]_[A12C]], the Kd rises from 666 nM to > 2300 nM. The first binds more tightly here.

Going from UCUCUUAUACACUUAUUAAUUCUCUU (ssRNA) [Id_ii_S1_P5E.4_K5.3_C5.2_[C-2A]_H5.3_A5.1_F5.1_T5.2_[T11A]_[A12T]] to UCUCUUAAACACUUAUUAUAUCUCUU (ssRNA) [Id_ii_S1_P5E.4_K5.3_C5.2_[C-2A]_[T-1A]_H5.3_A5.1_F5.1_T5.2], the Kd rises from 517 nM to > 2300 nM. The first binds more tightly here.

Compared with UCUCUUAUACACUUAUUAUCUCUCUU (ssRNA) [Id_ii_S1_P5E.4_K5.3_C5.2_[C-2A]_H5.3_A5.1_F5.1_T5.2_[A12C]], UCUCUUCCACACUUAUUAUAUCUCUU (ssRNA) [Id_ii_S1_P5E.4_K5.3_C5.2_[T-1C]_H5.3_A5.1_F5.1_T5.2] is higher in Kd: 435 nM for the first, > 2300 nM for the second. The first binds more tightly here.

First: UCUCUUCGACACUUAUUAAUUCUCUU (ssRNA) [Id_ii_S1_P5E.4_K5.3_C5.2_[T-1G]_H5.3_A5.1_F5.1_T5.2_[T11A]_[A12T]]
Second: UCUCUUAUACACUUAUUACCUCUCUU (ssRNA) [Id_ii_S1_P5E.4_K5.3_C5.2_[C-2A]_H5.3_A5.1_F5.1_T5.2_[T11C]_[A12C]]
The Kd of the first is higher: > 2300 nM for the first, 606 nM for the second.

Going from UCUCUUUGUAUUAUACUCUCUU (ssRNA) [Ic_S1_P5E.1_K5.1_C5.1_H5.1_A5.1_F5.1_[T9A]_[A10C]_T5.1] to UCUCUUCCACACUUAUUAGCUCUCUU (ssRNA) [Id_ii_S1_P5E.4_K5.3_C5.2_[T-1C]_H5.3_A5.1_F5.1_T5.2_[T11G]_[A12C]], the Kd rises from 2.48 nM to > 2300 nM. The first binds more tightly here.

Compared with UCUCUUCAACACUUAUUAGAUCUCUU (ssRNA) [Id_ii_S1_P5E.4_K5.3_C5.2_[T-1A]_H5.3_A5.1_F5.1_T5.2_[T11G]], UCUCUUUGUAUUAUCCUCUCUU (ssRNA) [Ib_S1_P5E.1_K5.1_C5.1_H5.1_A5.1_F5.1_[T9C]_[A10C]_T5.1] is lower in Kd: > 2300 nM for the first, 26.8 nM for the second. The second binds more tightly here.

First: UCUCUUUGUAUUAUAUUCUCUU (ssRNA) [Ib_S1_P5E.1_K5.1_C5.1_H5.1_A5.1_F5.1_[T9A]_[A10T]_T5.1]
Second: UCUCUUAUACACUUAUUAAAUCUCUU (ssRNA) [Id_ii_S1_P5E.4_K5.3_C5.2_[C-2A]_H5.3_A5.1_F5.1_T5.2_[T11A]]
The Kd of the first is 680-fold lower: 1.1 nM for the first, 744 nM for the second.

Going from UCUCUUCCACACUUAUUACUUCUCUU (ssRNA) [Id_ii_S1_P5E.4_K5.3_C5.2_[T-1C]_H5.3_A5.1_F5.1_T5.2_[T11C]_[A12T]] to UCUCUUAUACACUUAUUAACUCUCUU (ssRNA) [Id_ii_S1_P5E.4_K5.3_C5.2_[C-2A]_H5.3_A5.1_F5.1_T5.2_[T11A]_[A12C]], the Kd falls from > 2300 nM to 464 nM.

UCUCUUCCACACUUAUUACAUCUCUU (ssRNA) [Id_ii_S1_P5E.4_K5.3_C5.2_[T-1C]_H5.3_A5.1_F5.1_T5.2_[T11C]] and UCUCUUCGACACUUAUUACUUCUCUU (ssRNA) [Id_ii_S1_P5E.4_K5.3_C5.2_[T-1G]_H5.3_A5.1_F5.1_T5.2_[T11C]_[A12T]] cannot be ordered by Kd: > 2300 nM for the first, > 2300 nM for the second.

Going from UCUCUUCGACACUUAUUAAAUCUCUU (ssRNA) [Id_ii_S1_P5E.4_K5.3_C5.2_[T-1G]_H5.3_A5.1_F5.1_T5.2_[T11A]] to UCUCUUAUACACUUAUUAUUUCUCUU (ssRNA) [Id_ii_S1_P5E.4_K5.3_C5.2_[C-2A]_H5.3_A5.1_F5.1_T5.2_[A12T]], the Kd falls from > 2300 nM to 517 nM. The second binds more tightly here.

UCUCUUCAACACUUAUUACCUCUCUU (ssRNA) [Id_ii_S1_P5E.4_K5.3_C5.2_[T-1A]_H5.3_A5.1_F5.1_T5.2_[T11C]_[A12C]] was tested, and the Kd was > 2300 nM.
